Test system: dCas9 (SpyCas9 D10A/H840A) (Streptococcus pyogenes)
Assay: DNA binding assay
Conditions: not given in the material (Methods are in the supplement, not held)

## crRNA:tracrRNA + 55-bp target dsDNA
  Kd: 4 nM

Source: article PMC4184034
